{"source": "the supplement of paper PMC9112550", "about": "“Optimization of the antimicrobial peptide Bac7 by deep mutational scanning” (BMC Biology, 2022);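 further: peptides expressed intracellularly from a pBAD plasmid library in pooled LB shake-flask culture, induced with 0.3% L-arabinose, DNA abundance read by NGS, three biological replicates, DESeq2 with apeglm shrinkage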", "data": [{"system": "Escherichia coli TOP10", "test": "shrunken log2 fold change of peptide-encoding DNA abundance (4.5 h post-induction vs induction); higher = less antimicrobial activity (less host growth inhibition)", "details": "time post-induction: 4.5 h; library: site-saturation at positions 5, 18, 19, 20", "values": [{"sequence": "RRIRQRPPRLPRPRPRPCKAPRP", "shrunken log2 fold change": -0.218}, {"sequence": "RRIRFRPPRLPRPRPRPHDLPRP", "shrunken log2 fold change": -0.203}, {"sequence": "RRIRVRPPRLPRPRPRPPNRPRP", "shrunken log2 fold change": 0.144}, {"sequence": "RRIRARPPRLPRPRPRPYYHPRP", "shrunken log2 fold change": -1.02}, {"sequence": "RRIRMRPPRLPRPRPRPHWQPRP", "shrunken log2 fold change": 0.161}, {"sequence": "RRIRDRPPRLPRPRPRPCVNPRP", "shrunken log2 fold change": 0.0261}, {"sequence": "RRIRDRPPRLPRPRPRPKLMPRP", "shrunken log2 fold change": -0.146}, {"sequence": "RRIRQRPPRLPRPRPRPPQMPRP", "shrunken log2 fold change": -0.089}, {"sequence": "RRIRTRPPRLPRPRPRPSGMPRP", "shrunken log2 fold change": -0.34}, {"sequence": "RRIRLRPPRLPRPRPRPTVDPRP", "shrunken log2 fold change": -0.131}, {"sequence": "RRIRARPPRLPRPRPRPRAMPRP", "shrunken log2 fold change": 0.808}, {"sequence": "RRIRCRPPRLPRPRPRPYAKPRP", "shrunken log2 fold change": -0.671}, {"sequence": "RRIRSRPPRLPRPRPRPAHIPRP", "shrunken log2 fold change": -0.0188}, {"sequence": "RRIRFRPPRLPRPRPRPYKIPRP", "shrunken log2 fold change": -0.462}, {"sequence": "RRIRQRPPRLPRPRPRPRDLPRP", "shrunken log2 fold change": 0.412}, {"sequence": "RRIRIRPPRLPRPRPRPPGHPRP", "shrunken log2 fold change": 0.11}, {"sequence": "RRIRPRPPRLPRPRPRPVKPPRP", "shrunken log2 fold change": -0.14}, {"sequence": "RRIRTRPPRLPRPRPRPGIVPRP", "shrunken log2 fold change": -0.184}, {"sequence": "RRIRSRPPRLPRPRPRPPQTPRP", "shrunken log2 fold change": 0.365}, {"sequence": "RRIRYRPPRLPRPRPRPALKPRP", "shrunken log2 fold change": 0.0554}, {"sequence": "RRIRKRPPRLPRPRPRPNPIPRP", "shrunken log2 fold change": 0.0804}, {"sequence": "RRIRCRPPRLPRPRPRPVLQPRP", "shrunken log2 fold change": 1.24}, {"sequence": "RRIRIRPPRLPRPRPRPAYCPRP", "shrunken log2 fold change": -0.23}, {"sequence": "RRIRVRPPRLPRPRPRPDMIPRP", "shrunken log2 fold change": -0.0118}, {"sequence": "RRIRPRPPRLPRPRPRPMGKPRP", "shrunken log2 fold change": -0.0536}, {"sequence": "RRIRDRPPRLPRPRPRPEQMPRP", "shrunken log2 fold change": 0.861}, {"sequence": "RRIRWRPPRLPRPRPRPHKIPRP", "shrunken log2 fold change": -0.0312}, {"sequence": "RRIRWRPPRLPRPRPRPDNAPRP", "shrunken log2 fold change": -0.000159}, {"sequence": "RRIRVRPPRLPRPRPRPGQIPRP", "shrunken log2 fold change": -0.0586}, {"sequence": "RRIRARPPRLPRPRPRPVQPPRP", "shrunken log2 fold change": 0.392}, {"sequence": "RRIRDRPPRLPRPRPRPTRSPRP", "shrunken log2 fold change": 0.877}, {"sequence": "RRIRQRPPRLPRPRPRPQPCPRP", "shrunken log2 fold change": 0.149}, {"sequence": "RRIRYRPPRLPRPRPRPLQTPRP", "shrunken log2 fold change": 0.0147}, {"sequence": "RRIRDRPPRLPRPRPRPAFCPRP", "shrunken log2 fold change": 0.111}, {"sequence": "RRIRKRPPRLPRPRPRPWIKPRP", "shrunken log2 fold change": -0.00314}, {"sequence": "RRIRMRPPRLPRPRPRPQDNPRP", "shrunken log2 fold change": 0.013}, {"sequence": "RRIRMRPPRLPRPRPRPNIYPRP", "shrunken log2 fold change": -0.124}, {"sequence": "RRIRPRPPRLPRPRPRPCFHPRP", "shrunken log2 fold change": -0.202}, {"sequence": "RRIRARPPRLPRPRPRPIPVPRP", "shrunken log2 fold change": 0.161}, {"sequence": "RRIRIRPPRLPRPRPRPHFDPRP", "shrunken log2 fold change": -0.149}, {"sequence": "RRIRYRPPRLPRPRPRPYMCPRP", "shrunken log2 fold change": -0.0233}, {"sequence": "RRIRKRPPRLPRPRPRPGCIPRP", "shrunken log2 fold change": 0.424}, {"sequence": "RRIRERPPRLPRPRPRPAGLPRP", "shrunken log2 fold change": -0.0519}, {"sequence": "RRIRHRPPRLPRPRPRPVFPPRP", "shrunken log2 fold change": 0.171}, {"sequence": "RRIRSRPPRLPRPRPRPEQVPRP", "shrunken log2 fold change": 0.243}, {"sequence": "RRIRDRPPRLPRPRPRPYWIPRP", "shrunken log2 fold change": -0.296}, {"sequence": "RRIRVRPPRLPRPRPRPTLVPRP", "shrunken log2 fold change": 0.0318}, {"sequence": "RRIRFRPPRLPRPRPRPVRYPRP", "shrunken log2 fold change": -0.0423}, {"sequence": "RRIRPRPPRLPRPRPRPRWTPRP", "shrunken log2 fold change": 0.399}, {"sequence": "RRIRSRPPRLPRPRPRPYAWPRP", "shrunken log2 fold change": -0.087}, {"sequence": "RRIRLRPPRLPRPRPRPSMLPRP", "shrunken log2 fold change": -0.965}, {"sequence": "RRIRGRPPRLPRPRPRPYAAPRP", "shrunken log2 fold change": 0.859}, {"sequence": "RRIRWRPPRLPRPRPRPWPHPRP", "shrunken log2 fold change": 0.204}, {"sequence": "RRIRTRPPRLPRPRPRPNYMPRP", "shrunken log2 fold change": 0.0222}, {"sequence": "RRIRYRPPRLPRPRPRPIRWPRP", "shrunken log2 fold change": -0.114}, {"sequence": "RRIRSRPPRLPRPRPRPHYDPRP", "shrunken log2 fold change": -0.735}, {"sequence": "RRIRQRPPRLPRPRPRPGRVPRP", "shrunken log2 fold change": 0.422}, {"sequence": "RRIRDRPPRLPRPRPRPWQYPRP", "shrunken log2 fold change": -0.482}, {"sequence": "RRIRSRPPRLPRPRPRPRIRPRP", "shrunken log2 fold change": -0.0466}, {"sequence": "RRIRNRPPRLPRPRPRPHTEPRP", "shrunken log2 fold change": 0.0434}]}]}
